From patent publication US20220229068A1, “DETECTION OF PROTEIN TO PROTEIN INTERACTIONS” (THE GOVERNING COUNCIL OF THE UNIVERSITY OF TORONTO, priority 2019, published 2022)

Tests used:
Assay in all cases: SIMPL ELISA, bait-IN/prey-CIC
[1] = molecular target: ARHGAP1 (prey, CIC format) (human) (UniProt Q07960)
[2] = molecular target: CASP9 (prey, CIC format) (human) (UniProt P55211)
[3] = substrate: FOS (prey, CIC format) (human) (UniProt P01100)
[4] = molecular target: T1, MAD1L1 (prey, CIC format) (human) (UniProt Q9Y6D9)
T1 sequence (looked up): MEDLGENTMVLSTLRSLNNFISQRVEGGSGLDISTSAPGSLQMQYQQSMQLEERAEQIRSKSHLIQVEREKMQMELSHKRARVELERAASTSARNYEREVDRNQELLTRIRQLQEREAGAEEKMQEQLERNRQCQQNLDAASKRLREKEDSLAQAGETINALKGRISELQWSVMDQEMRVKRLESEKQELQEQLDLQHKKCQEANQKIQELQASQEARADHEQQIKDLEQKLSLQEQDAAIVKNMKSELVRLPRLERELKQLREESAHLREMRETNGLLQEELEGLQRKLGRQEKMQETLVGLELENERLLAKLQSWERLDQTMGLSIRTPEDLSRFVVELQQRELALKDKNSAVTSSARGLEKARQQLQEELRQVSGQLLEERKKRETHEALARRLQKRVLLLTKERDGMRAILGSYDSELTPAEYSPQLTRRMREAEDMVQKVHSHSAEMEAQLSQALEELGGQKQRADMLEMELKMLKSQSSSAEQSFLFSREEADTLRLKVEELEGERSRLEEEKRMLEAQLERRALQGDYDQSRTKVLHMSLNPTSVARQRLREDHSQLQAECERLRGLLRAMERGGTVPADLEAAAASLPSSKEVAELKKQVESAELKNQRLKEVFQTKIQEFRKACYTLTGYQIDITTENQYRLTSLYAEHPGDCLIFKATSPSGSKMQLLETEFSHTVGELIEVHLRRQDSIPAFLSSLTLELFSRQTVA

[5] = molecular target: T2, MCM5 (prey, CIC format) (human) (UniProt P33992)
T2 sequence (looked up): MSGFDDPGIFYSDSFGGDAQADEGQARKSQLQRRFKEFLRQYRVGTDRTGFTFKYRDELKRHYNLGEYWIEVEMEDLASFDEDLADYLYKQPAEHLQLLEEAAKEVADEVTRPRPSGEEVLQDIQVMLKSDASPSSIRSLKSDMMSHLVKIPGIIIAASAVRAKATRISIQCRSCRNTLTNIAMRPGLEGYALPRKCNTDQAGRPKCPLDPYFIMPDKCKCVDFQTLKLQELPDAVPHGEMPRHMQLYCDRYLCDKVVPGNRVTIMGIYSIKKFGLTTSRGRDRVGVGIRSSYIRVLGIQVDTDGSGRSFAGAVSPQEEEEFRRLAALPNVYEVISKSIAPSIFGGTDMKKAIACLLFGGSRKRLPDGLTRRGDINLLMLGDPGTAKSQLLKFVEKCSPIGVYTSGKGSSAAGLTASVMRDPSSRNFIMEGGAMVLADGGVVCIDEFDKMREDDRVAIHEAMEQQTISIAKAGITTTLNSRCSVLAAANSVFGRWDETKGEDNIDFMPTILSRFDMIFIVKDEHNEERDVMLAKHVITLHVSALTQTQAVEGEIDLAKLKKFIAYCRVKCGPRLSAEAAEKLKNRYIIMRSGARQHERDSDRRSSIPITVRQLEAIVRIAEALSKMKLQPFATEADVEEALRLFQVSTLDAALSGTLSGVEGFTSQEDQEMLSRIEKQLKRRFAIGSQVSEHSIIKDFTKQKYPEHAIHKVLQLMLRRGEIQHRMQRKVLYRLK

[6] = molecular target: T3, NTF4 (prey, CIC format) (human) (UniProt P34130)
T3 sequence (looked up): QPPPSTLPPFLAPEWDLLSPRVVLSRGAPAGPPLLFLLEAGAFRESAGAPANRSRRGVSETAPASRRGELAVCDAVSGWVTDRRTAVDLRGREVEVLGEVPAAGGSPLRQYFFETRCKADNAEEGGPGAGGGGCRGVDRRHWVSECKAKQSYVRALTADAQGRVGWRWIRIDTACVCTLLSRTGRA

[7] = molecular target: HBB (prey, CIC format) (human) (UniProt P68871)
[8] = molecular target: T4, MCM10 (prey, CIC format) (human) (UniProt Q7L590)
T4 sequence (looked up): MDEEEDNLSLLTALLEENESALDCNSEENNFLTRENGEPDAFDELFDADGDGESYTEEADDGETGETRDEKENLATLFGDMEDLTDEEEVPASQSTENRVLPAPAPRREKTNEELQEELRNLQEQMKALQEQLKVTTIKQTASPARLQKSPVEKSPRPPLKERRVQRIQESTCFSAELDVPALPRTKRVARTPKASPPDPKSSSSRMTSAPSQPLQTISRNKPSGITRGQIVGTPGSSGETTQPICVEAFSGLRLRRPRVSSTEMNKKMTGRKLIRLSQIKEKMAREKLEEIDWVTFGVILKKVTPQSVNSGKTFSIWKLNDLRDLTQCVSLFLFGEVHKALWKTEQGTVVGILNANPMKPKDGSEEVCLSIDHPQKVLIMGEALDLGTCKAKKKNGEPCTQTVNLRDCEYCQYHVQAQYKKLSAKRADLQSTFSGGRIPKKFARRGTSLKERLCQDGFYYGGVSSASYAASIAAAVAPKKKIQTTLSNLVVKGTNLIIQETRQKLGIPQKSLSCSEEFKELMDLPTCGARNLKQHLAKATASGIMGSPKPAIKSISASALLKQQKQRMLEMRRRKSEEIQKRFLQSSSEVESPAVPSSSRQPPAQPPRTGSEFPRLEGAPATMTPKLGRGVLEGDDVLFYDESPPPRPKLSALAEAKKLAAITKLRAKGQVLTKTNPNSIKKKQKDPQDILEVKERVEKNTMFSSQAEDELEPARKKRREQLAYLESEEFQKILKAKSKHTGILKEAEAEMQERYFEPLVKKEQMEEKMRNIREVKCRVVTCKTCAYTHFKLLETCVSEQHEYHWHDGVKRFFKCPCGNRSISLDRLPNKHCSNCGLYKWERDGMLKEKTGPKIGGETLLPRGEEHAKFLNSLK

[9] = molecular target: T5, ORC4 (prey, CIC format) (human) (UniProt O43929)
T5 sequence (looked up): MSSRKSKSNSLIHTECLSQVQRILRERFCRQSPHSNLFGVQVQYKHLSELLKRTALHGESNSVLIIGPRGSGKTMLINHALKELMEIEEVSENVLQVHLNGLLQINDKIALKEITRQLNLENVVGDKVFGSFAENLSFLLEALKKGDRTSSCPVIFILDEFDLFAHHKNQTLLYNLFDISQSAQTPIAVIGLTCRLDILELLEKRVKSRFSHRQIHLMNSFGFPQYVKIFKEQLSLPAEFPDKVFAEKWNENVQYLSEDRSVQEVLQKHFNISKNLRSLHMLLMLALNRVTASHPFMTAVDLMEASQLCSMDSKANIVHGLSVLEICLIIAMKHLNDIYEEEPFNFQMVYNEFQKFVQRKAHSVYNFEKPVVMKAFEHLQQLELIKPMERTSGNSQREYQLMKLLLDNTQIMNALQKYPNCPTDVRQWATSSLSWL

[10] = molecular target: UBE2I (prey, CIC format) (human) (UniProt P63279)
[11] = molecular target: T6, FRS2 (prey, CIC format) (human) (UniProt Q8WU20)
T6 sequence (looked up): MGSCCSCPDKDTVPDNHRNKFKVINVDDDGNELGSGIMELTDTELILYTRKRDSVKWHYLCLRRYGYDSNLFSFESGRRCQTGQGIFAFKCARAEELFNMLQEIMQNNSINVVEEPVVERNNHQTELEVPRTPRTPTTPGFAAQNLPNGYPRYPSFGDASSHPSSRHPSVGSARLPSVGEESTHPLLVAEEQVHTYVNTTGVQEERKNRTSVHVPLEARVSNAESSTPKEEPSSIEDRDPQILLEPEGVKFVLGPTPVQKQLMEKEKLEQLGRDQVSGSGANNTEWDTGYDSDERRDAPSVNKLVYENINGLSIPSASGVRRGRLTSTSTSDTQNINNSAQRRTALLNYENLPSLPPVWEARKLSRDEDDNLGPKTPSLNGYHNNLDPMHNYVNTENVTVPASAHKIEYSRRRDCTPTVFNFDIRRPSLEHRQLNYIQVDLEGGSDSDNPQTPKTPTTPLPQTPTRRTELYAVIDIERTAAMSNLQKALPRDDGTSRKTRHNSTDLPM

[12] = molecular target: PCNA (prey, CIC format) (human) (UniProt P12004)
[13] = molecular target: T7, PDPK1 (prey, CIC format) (human) (UniProt O15530)
T7 sequence (looked up): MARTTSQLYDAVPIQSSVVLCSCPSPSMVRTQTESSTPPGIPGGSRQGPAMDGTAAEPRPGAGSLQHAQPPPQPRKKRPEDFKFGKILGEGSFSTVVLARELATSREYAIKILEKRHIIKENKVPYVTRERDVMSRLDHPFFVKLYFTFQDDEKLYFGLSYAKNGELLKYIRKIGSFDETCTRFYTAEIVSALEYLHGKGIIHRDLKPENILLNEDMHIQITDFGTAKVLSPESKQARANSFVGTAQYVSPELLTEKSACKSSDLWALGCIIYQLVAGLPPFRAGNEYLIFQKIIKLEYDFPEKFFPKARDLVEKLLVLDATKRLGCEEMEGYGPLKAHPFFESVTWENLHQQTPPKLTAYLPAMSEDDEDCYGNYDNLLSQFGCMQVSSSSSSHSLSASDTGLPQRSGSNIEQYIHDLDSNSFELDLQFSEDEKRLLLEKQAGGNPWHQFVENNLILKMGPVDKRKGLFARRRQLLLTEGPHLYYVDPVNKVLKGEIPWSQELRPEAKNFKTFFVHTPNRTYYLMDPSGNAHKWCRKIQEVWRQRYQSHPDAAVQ

Chain of CASP9 (prey, CIC format) (human) (P55211 whole entry): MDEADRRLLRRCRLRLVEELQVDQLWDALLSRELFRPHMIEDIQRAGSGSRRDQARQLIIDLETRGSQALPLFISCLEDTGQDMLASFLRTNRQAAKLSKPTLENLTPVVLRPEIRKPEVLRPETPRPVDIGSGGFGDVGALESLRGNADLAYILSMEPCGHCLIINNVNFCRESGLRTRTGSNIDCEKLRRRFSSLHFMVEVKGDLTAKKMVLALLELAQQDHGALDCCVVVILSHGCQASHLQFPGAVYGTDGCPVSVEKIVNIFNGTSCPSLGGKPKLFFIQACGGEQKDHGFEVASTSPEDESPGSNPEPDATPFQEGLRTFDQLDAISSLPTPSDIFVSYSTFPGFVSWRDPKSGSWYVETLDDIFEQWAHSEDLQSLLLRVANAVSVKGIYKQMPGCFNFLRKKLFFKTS
Chain of ARHGAP1 (prey, CIC format) (human) (Q07960 whole entry): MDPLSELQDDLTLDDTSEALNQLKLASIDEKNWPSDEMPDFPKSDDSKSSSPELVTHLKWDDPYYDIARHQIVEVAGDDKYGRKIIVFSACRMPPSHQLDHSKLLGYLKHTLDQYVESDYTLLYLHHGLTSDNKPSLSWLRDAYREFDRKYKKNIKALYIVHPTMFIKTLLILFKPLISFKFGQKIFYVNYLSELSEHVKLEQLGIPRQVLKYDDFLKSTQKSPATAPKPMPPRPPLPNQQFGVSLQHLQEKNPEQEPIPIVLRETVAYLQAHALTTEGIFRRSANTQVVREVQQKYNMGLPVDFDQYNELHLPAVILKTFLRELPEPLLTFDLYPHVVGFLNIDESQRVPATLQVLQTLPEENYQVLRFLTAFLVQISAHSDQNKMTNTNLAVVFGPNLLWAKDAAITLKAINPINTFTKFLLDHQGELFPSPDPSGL
Chain of PCNA (prey, CIC format) (human) (P12004 whole entry): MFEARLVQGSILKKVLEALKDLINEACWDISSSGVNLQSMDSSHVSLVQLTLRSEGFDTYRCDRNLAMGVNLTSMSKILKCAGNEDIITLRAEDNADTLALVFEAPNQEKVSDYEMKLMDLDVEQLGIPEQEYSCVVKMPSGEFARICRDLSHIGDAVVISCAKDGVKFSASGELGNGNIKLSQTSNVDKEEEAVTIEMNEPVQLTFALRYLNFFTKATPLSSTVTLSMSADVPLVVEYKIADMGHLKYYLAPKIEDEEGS
Chain of UBE2I (prey, CIC format) (human) (P63279 whole entry): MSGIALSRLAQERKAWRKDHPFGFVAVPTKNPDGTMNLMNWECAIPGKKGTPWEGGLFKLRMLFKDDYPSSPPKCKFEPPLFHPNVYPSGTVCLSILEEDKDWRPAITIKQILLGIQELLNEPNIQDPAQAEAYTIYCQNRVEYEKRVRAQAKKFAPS
Chain of FOS (prey, CIC format) (human) (P01100 whole entry): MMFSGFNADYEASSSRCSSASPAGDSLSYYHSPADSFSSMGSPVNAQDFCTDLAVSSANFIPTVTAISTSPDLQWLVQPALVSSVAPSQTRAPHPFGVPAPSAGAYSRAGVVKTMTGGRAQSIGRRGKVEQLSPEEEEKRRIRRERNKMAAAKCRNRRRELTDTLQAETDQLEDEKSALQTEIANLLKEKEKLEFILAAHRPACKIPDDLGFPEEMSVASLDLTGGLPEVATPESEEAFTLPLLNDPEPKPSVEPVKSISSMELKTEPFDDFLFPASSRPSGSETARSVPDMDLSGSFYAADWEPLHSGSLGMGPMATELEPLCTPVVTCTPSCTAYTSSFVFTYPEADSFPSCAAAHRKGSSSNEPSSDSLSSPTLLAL
Chain of HBB (prey, CIC format) (human) (P68871 whole entry): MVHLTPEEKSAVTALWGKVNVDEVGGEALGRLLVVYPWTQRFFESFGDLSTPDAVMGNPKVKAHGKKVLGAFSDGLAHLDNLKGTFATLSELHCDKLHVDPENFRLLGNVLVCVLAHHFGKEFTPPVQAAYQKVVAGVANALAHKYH

B1: CEBPG (bait, IN format) (protein, human, UniProt P53567 1-150, looked up)
chain: MSKISQQNSTPGVNGISVIHTQAHASGLQQVPQLVPAGPGGGGKAVAPSKQSKKSSPMDRNSDEYRQRRERNNMAVKKSRLKSKQKAQDTLQRVNQLKEENERLEAKIKLLTKELSVLKDLFLEHAHNLADNVQSISTENTTADGDNAGQ
A PLU mean [1] of 0.0585, a PLU mean [2] of 0.482 and a PLU mean [3] of 0.788 were found for B1 in this work.

B2: BDNF (bait, IN format) (ligand, human, UniProt P23560 19-247, looked up)
chain: APMKEANIRGQGGLAYPGVRTHGTLESVNGPKAGSRGLTSLADTFEHVIEELLDEDQKVRPNEENNKDADLYTSRVMLSSQVPLEPPLLFLLEEYKNYLDAANMSMRVRRHSDPARRGELSVCDSISEWVTAADKKTAVDMSGGTVTVLEKVPVSKGQLKQYFYETKCNPMGYTKEGCRGIDKRHWNSQCRTTQSYVRALTMDSKKRIGWRFIRIDTSCVCTLTIKRGR
A PLU mean [4] of 0.19, a PLU mean [5] of 0.22 and a PLU mean [6] of 0.629 were found for B2 in this work.

B3: ORC2 (bait, IN format) (protein, human, UniProt Q13416 1-577, looked up)
chain: MSKPELKEDKMLEVHFVGDDDVLNHILDREGGAKLKKERAQLLVNPKKIIKKPEYDLEEDDQEVLKDQNYVEIMGRDVQESLKNGSATGGGNKVYSFQNRKHSEKMAKLASELAKTPQKSVSFSLKNDPEITINVPQSSKGHSASDKVQPKNNDKSEFLSTAPRSLRKRLIVPRSHSDSESEYSASNSEDDEGVAQEHEEDTNAVIFSQKIQAQNRVVSAPVGKETPSKRMKRDKTSDLVEEYFEAHSSSKVLTSDRTLQKLKRAKLDQQTLRNLLSKVSPSFSAELKQLNQQYEKLFHKWMLQLHLGFNIVLYGLGSKRDLLERFRTTMLQDSIHVVINGFFPGISVKSVLNSITEEVLDHMGTFRSILDQLDWIVNKFKEDSSLELFLLIHNLDSQMLRGEKSQQIIGQLSSLHNIYLIASIDHLNAPLMWDHAKQSLFNWLWYETTTYSPYTEETSYENSLLVKQSGSLPLSSLTHVLRSLTPNARGIFRLLIKYQLDNQDNPSYIGLSFQDFYQQCREAFLVNSDLTLRAQLTEFRDHKLIRTKKGTDGVEYLLIPVDNGTLTDFLEKEEEEA
A PLU mean [7] of 0.227, a PLU mean [8] of 0.43 and a PLU mean [9] of 0.297 were found for B3 in this work. It also gave a PLU mean [10] of 0.119.

B4: GADD45A (bait, IN format) (protein, human, UniProt P24522 1-165, looked up)
chain: MTLEEFSAGEQKTERMDKVGDALEEVLSKALSQRTITVGVYEAAKLLNVDPDNVVLCLLAADEDDDRDVALQIHFTLIQAFCCENDINILRVSNPGRLAELLLLETDAGPAASEGAEQPPDLHCVLVTNPHSSQWKDPALSQLICFCRESRYMDQWVPVINLPER
A PLU mean [11] of 0.21, a PLU mean [12] of 0.0617 and a PLU mean [13] of 0.265 were found for B4 in this work.
